According to patent US8975370B2, “Inhibitor proteins of a protease and use thereof” (Universite de Lausanne, priority 2003, dated 2015):

Test system: T1, Cc1cc(=O)oc2cc(NC(=O)[C@H](CCCNC(=N)N)NC(=O)[C@H](Cc3ccccc3)NC(=O)OCc3ccccc3)ccc12
T1 construct: substrate Z-FR-AMC
Assay: Km of PK for its fluorogenic substrate (used for ka correction, eq 2)
Format: biochemical, human
Conditions: other: PK, substrate Z-FR-AMC, kinetics in 50 mM Tris pH 7.5, 150 mM NaCl, 0.05% Triton X-100, 0.01% BSA, 25° C.
Text: hK2 and hK3 (PSA) were purified from human semen as previously described (Frenette G, Gervais Y, Tremblay R R, Dube J Y. 1998 “Contamination of purified prostate-specific antigen preparations by kallikrein hK2” J Urol 159, 1375-8), anti-hK2 and anti-PSA monoclonal antibodies were a gift from Professor R R Tremblay, Laval University, Canada. Human chymotrypsin (Chtr), urokinase plasminogen activator (uPA), human kallikrein hK1, human plasma kallikrein (PK), human neutrophil elastase (HNE) and commercial ACT (human plasma α1-antichymotrypsin) were purchased from Calbiochem. […]
The association rate constants for interactions of hK2, chymotrypsin, PK and HNE with different rACTs were determined under pseudo-first order conditions using the progress curve method (Morrison J F, Walsh C T. 1988 “The behavior and significance of slow-binding enzyme inhibitors” Adv. Enzymol. Relat. Areas Mol. Biol 61, 201-301). […] Each reaction was made in reaction buffer (50 mM Tris pH 7.5, 150 mM NaCl, 0.05% Triton X-100, 0.01% BSA) at 25° C. for 45 min and the rate of product formation was measured using a FLx800 fluorescence 96-well microplate reader (Biotek, USA). […]
For each inhibitor, a kobs was calculated, for four different concentrations of inhibitors, by non linear regression of the data using equation 1. […]

Sequence of human plasma kallikrein (PK) (Homo sapiens) (chain, as listed by the source): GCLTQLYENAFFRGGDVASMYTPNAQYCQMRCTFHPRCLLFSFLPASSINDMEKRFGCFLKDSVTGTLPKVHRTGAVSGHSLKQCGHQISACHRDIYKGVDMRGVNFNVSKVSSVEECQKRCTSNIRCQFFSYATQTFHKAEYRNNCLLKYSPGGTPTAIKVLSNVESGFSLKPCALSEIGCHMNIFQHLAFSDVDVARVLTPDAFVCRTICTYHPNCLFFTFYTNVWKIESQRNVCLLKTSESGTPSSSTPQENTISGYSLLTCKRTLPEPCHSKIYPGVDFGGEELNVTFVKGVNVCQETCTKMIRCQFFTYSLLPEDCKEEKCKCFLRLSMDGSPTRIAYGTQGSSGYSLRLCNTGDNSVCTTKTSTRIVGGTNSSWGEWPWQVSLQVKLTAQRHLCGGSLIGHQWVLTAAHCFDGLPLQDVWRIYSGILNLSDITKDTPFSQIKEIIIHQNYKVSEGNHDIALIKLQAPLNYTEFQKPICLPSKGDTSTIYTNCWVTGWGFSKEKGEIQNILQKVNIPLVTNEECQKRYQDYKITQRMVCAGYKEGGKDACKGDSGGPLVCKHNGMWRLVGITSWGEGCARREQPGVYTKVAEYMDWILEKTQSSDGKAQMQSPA

Q: With “human plasma kallikrein (PK) (Homo sapiens)” as the substance, how does the Km read?
A: Its Km is 170 µM.
